The data set can be described thus: protein stability index of a GFP-peptide fusion (GPS, HEK-293T) (PSI 1-6); higher = more stable. The following applies: c terminus: a fixed tail appended.

± gives the standard deviation.
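Note: 24-mer peptide tiles fused after GFP, lentivirally expressed, FACS-sorted into six equal bins by GFP/DsRed ratio, decoded by Illumina sequencing, PSI is the read-weighted mean bin number.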

Regarding ANISIANKYDNTCLMIAAYKGHTD [FEM1B], the protein stability index runs as follows: (treatment: DMSO) 2.75 ± 0.17; (treatment: MLN4924 1 uM, 8 h) 2.98 ± 0.32.

For ANVTLSLDTVEEVLSVSKILHIPQ [KLHL14], the protein stability index is, setting by setting: (treatment: DMSO) 2.31 ± 0.43; (treatment: MLN4924 1 uM, 8 h) 2.21 ± 0.38.

Turning to APAHVDEQVFLYENARSGAEAEPE [ZBED1], the protein stability index is, setting by setting: (treatment: DMSO) 5.58 ± 0.21; (treatment: MLN4924 1 uM, 8 h) 5.51 ± 0.28.

Turning to APHSTFFDPIVLLPCDLPKVVSRA [LPCAT4], the protein stability index came to 2.67 ± 0.31 (treatment: DMSO) and 2.72 ± 0.15 (treatment: MLN4924 1 uM, 8 h).

As for APHTPPLPRRPRKGSSELGFPRVA [RNF208], the protein stability index worked out at 4.17 ± 0.21 (treatment: DMSO) and 4.06 ± 0.13 (treatment: MLN4924 1 uM, 8 h).

With APMVAGALARLGTVTVISPLELMR [SLC25A39], the protein stability index came out at 2.35 ± 0.22 (treatment: DMSO) and 2.41 ± 0.32 (treatment: MLN4924 1 uM, 8 h).

Take AQAAVQGPVGTDFKPLNSTPATTT [ZNF207]: the protein stability index (treatment: DMSO) was 4.81 ± 0.24 and the protein stability index (treatment: MLN4924 1 uM, 8 h) is 4.89 ± 0.26.

As to AQAGGSKKAEQKKKEKIIEDKTFG [ZC3H15], the protein stability index is, setting by setting: (treatment: DMSO) 5.12 ± 0.17; (treatment: MLN4924 1 uM, 8 h) 5.23 ± 0.16.

In the case of AQEVSPCGPPSLGAVLALVAIFIM [MFSD9], the protein stability index is 2 ± 0.15 (treatment: DMSO) and 1.93 ± 0.39 (treatment: MLN4924 1 uM, 8 h).

In the case of AQHKFLVAVESMEPNNIVVLLQTS [TCF25], the protein stability index was found to be 2.58 ± 0.54 (treatment: DMSO) and 2.35 ± 0.56 (treatment: MLN4924 1 uM, 8 h).

AQRKEERWDMADNEQVLTTEHEKK [YJU2B]: the protein stability index worked out at 5.57 ± 0.21 (treatment: DMSO) and 5.6 ± 0.12 (treatment: MLN4924 1 uM, 8 h).

AQTLAYGDMNHEWIGNEWLPSLGL [PPFIA4]: the protein stability index runs as follows: (treatment: DMSO) 2.54 ± 0.43; (treatment: MLN4924 1 uM, 8 h) 2.24 ± 0.029.

In the case of ARARERERLAHSRAAAAAAVAAAT [KCNA4], the protein stability index by setting is: (treatment: DMSO) 4.27 ± 0.24; (treatment: MLN4924 1 uM, 8 h) 4.38 ± 0.13.

Take ARDVQKIIGDYFSDQDPRVRTAAI [INTS4]: the protein stability index is 3.03 ± 0.29 (treatment: DMSO) and 3.15 ± 0.21 (treatment: MLN4924 1 uM, 8 h).

Take ARHFNYVGDLMGSLAYCLACGGGH [DHCR7]: the protein stability index came out at 2.9 ± 0.71 (treatment: DMSO) and 2.68 ± 0.53 (treatment: MLN4924 1 uM, 8 h).

In turn, ARSAASYMLFDPKDSVMQQNLVYY [P3H4] came in with a protein stability index (treatment: DMSO) of 2.28 ± 0.48 and a protein stability index (treatment: MLN4924 1 uM, 8 h) of 2.08 ± 0.45.

For ASAAAATAAFTTAKAAALSTKTPA [SPAG8], the protein stability index is, setting by setting: (treatment: DMSO) 4.48 ± 0.26; (treatment: MLN4924 1 uM, 8 h) 4.57 ± 0.2.

For ASAEAPGDSGERSEGEAMEICSEP [ZNF511], the protein stability index (treatment: DMSO) was 5.54 ± 0.21 and the protein stability index (treatment: MLN4924 1 uM, 8 h) is 5.47 ± 0.29.

Regarding ASAGKRRCFWLGMEGLETAEGSNS [SDE2], the protein stability index was 3.62 ± 0.26 (treatment: DMSO) and 3.84 ± 0.45 (treatment: MLN4924 1 uM, 8 h).

Turning to ASGHEPGGSAVCASRVKLQHLPAQ [PLEKHN1], the protein stability index is, setting by setting: (treatment: DMSO) 4.11 ± 0.27; (treatment: MLN4924 1 uM, 8 h) 3.95 ± 0.14.

In the case of ASPVPESSLTADLLSVDAFAAPSP [SNAP91], the protein stability index amounted to 4.88 ± 0.28 (treatment: DMSO) and 4.97 ± 0.15 (treatment: MLN4924 1 uM, 8 h).

Take ASQFLASASSSTTCCESTQRSVSD [IRX6]: the protein stability index is 5.09 ± 0.22 (treatment: DMSO) and 5.09 ± 0.22 (treatment: MLN4924 1 uM, 8 h).

Regarding ASQHSYPLNRFSSVPLDPMERPMS [CBY2], the protein stability index is, setting by setting: (treatment: DMSO) 3.92 ± 0.33; (treatment: MLN4924 1 uM, 8 h) 3.98 ± 0.32.

Take ASTPAQTAAGGQGGPGGPGSDKQQ [NR2F2]: the protein stability index runs as follows: (treatment: DMSO) 5.58 ± 0.26; (treatment: MLN4924 1 uM, 8 h) 5.59 ± 0.3.

ASVTIQARAEQEEEFISNTLFKKI [CCDC6]: the protein stability index (treatment: DMSO) is 3.54 ± 0.14 and the protein stability index (treatment: MLN4924 1 uM, 8 h) was found to be 3.81 ± 0.12.

ATEWQKAGAPPPSGSAVSTAPQQK [SRPK2] gave a protein stability index (treatment: DMSO) of 5.42 ± 0.14 and a protein stability index (treatment: MLN4924 1 uM, 8 h) of 5.18 ± 0.21.

ATLAACTSNGWGVTDCKHTEDVGV [LOXL2] showed a protein stability index (treatment: DMSO) of 4.03 ± 0.42 and a protein stability index (treatment: MLN4924 1 uM, 8 h) of 4.08 ± 0.21.

Consider ATLTQVSVEYGYRPGATAVPTPLT [FCHO1], for which the protein stability index is, setting by setting: (treatment: DMSO) 2.39 ± 0.36; (treatment: MLN4924 1 uM, 8 h) 2.47 ± 0.26.

Turning to AVGAAAEAEADEEADPPASDLPTP [SNX8], the protein stability index is, setting by setting: (treatment: DMSO) 5.5 ± 0.27; (treatment: MLN4924 1 uM, 8 h) 5.56 ± 0.19.

Regarding AVLLQLYVATEAILIALVGATPSY [SLC22A15], the protein stability index is, setting by setting: (treatment: DMSO) 3.33 ± 0.37; (treatment: MLN4924 1 uM, 8 h) 3.26 ± 0.52.

For the sequence AVVSCTPVHLVDKLPLPIALRSHL [RAB40B], the protein stability index worked out at 2.65 ± 0.12 (treatment: DMSO) and 1.98 ± 0.41 (treatment: MLN4924 1 uM, 8 h).

With AWSQRSAAGRVCRPPGPAGTEQSR [CPOX], the protein stability index turned out to be 4.16 ± 0.22 (treatment: DMSO) and 4.29 ± 0.16 (treatment: MLN4924 1 uM, 8 h).

With AYLVPYLVLLIIIGIPLFFLELAV [SLC6A17], the protein stability index came out at 3.83 ± 0.52 (treatment: DMSO) and 2.87 ± 0.28 (treatment: MLN4924 1 uM, 8 h).

As for AYRTQVSSCCLHICQGIRGLWGTT [PKD2L1], the protein stability index by setting is: (treatment: DMSO) 2.34 ± 0.45; (treatment: MLN4924 1 uM, 8 h) 2.27 ± 0.28.

For the sequence CAVTFFTILLSYGVILHSLKTQSL [OR4A15], the protein stability index (treatment: DMSO) is 3.59 ± 0.13 and the protein stability index (treatment: MLN4924 1 uM, 8 h) came to 3.62 ± 0.69.

Take CEIQVRTLASAGGPDNLVLLNPEK [ADD1]: the protein stability index was determined as 3.42 ± 0.42 (treatment: DMSO) and 3.45 ± 0.26 (treatment: MLN4924 1 uM, 8 h).

For the origin of these results see the supplement of paper PMC10567573.
